{"source": "the DeepSol protein solubility set", "data": [{"experiment": "soluble on expression in E. coli; label from the status in PepcDB or PDB records", "values": [{"sequence": "METTGDKAFYFLLKNCGHSLKFVDLRNSKRLHGRSFKLFGSQLESLYLDGSSKVDEMAFEDLCTSCGGLKELRINECYKITDENLSMIARRMEDLSILTLCGDGFKSLTSAGLIHISHMRNITELALDYNALVNDELLISISAGLPLLSSLSLANAGNDSSITAEGVSAIKNLKELTQLDASSLAAVNSKVLEQLGSLKKLEIIQLRNCTYLGDDGVRAKLRMPNIRHVDLSGSILVSNDSIQQFIKAFPSGPKLPPITLVVGGTAADASKLSVRGSRVVVDFSDYSTIVTMQTSQCSSSKFAIGGSASDAEGSDDEFEALTAQRSFYIDAVCGEEESPITDDGKLAEWAEKEARSLGLIKD", "soluble on expression in E. coli": "not soluble"}, {"sequence": "MKNSNFPAEVKDLTKRIRTVLMATAQMKEHEKDPEMLVDLQYSLANSYASTPELRRTWLESMAKIHARNGDLSEAAMCYIHIAALIAEYLKRKGYWKVEKICTASLLSEDTHPCDSNSLLTTPSGGSMFSMGWPAFLSITPNIKEEGAMKEDSGMQDTPYNENILVEQLYMCVEFLWKSERYELIADVNKPIIAVFEKQRDFKKLSDLYYDIHRSYLKVAEVVNSEKRLFGRYYRVAFYGQGFFEEEEGKEYIYKEPKLTGLSEISQRLLKLYADKFGADNVKIIQDSNKVNPKDLDPKYAYIQVTYVTPFFEEKEIEDRKTDFEMHHNINRFVFETPFTLSGKKHGGVAEQCKRRTILTTSHLFPYVKKRIQVISQSSTELNPIEVAIDEMSKKVSELNQLCTMEEVDMIRLQLKLQGSVSVKVNAGPMAYARAFLEETNAKKYPDNQVKLLKEIFRQFADACGQALDVNERLIKEDQLEYQEELRSHYKDMLSELSTVMNEQITGRDDLSKRGVDQTCTRVISKATPALPTVSISSSAEV", "soluble on expression in E. coli": "not soluble"}, {"sequence": "MSLAPRPRILICEDDPDIARLLNLMLEKGGFDSDMVHSAAQALEQVARRPYAAMTVDLNLPDQDGVSLIRALRRDSRTRDLAIVVVSANAREGELEFNSQPLAVSTWLEKPIDENLLILSLHRAIDNMAEGKEGYLTITTDPNSSSVDKLAAALEHHHHHH", "soluble on expression in E. coli": "soluble"}, {"sequence": "AHHHHHHGSLSERMLKALNDQLNRELYSAYLYFAMAAYFEDLGLEGFANWMKAQAEEEIGHALRFYNYIYDRNGRVELDEIPKPPKEWESPLKAFEAAYEHEKFISKSIYELAALAEEEKDYSTRAFLEWFINEQVEEEASVKKILDKLKFAKDSPQILFMLDKELSARAPKLPGLLMQGGE", "soluble on expression in E. coli": "not soluble"}, {"sequence": "VRQKGIDIIFMLDISNSMLARDTAPDRLTHAKTELLQISRRLGDGRKALLLFAGTPVVQCPLTDDEEDFEILLDMAAPELITTQGTDYRRAFDAALKLTNSGGELSSNETVLVLASDGEDHGNDLGDIATAMKTRGVHLHVIGVGGVQPVPIPMQGGPKRDQQGKIVLTSFKPEPLASLIKTAKGKFYYSRPDAPVHDAVADDIAAEAAEA", "soluble on expression in E. coli": "not soluble"}, {"sequence": "MGSDKIHHHHHHMNQIINDNYREFLKKLRERHLKKRKVKDKNKPIAVWMQDDIYRDFSIGKSLTIILRTEGCYYAKEGGCLMCSYLMDSSPEKITAENIINQFNYAIEKYKEKIKDLKDFSVKIFTSGSFLDDREVPKEARNYIFKKLSEFDNLKEVAIESRPEFIDEDKLNEIRKYLDVNVEIGVGIESFNEEIREKAINKGITNEQIIRAIELAKNYNIGIKAYLLIKPLFITEKEAIYDSISSANKCIELGCSRISFCPATVHKGSVMEFFFNKNQYRPPFLWSIIEILKEVKKSNPKALIMCDTSGVGSERGAHNLYNCKCNKLIKERLERFTLTQDINVLNVECECKNIWNAYIEVENKNIVPLGDERKLLL", "soluble on expression in E. coli": "not soluble"}, {"sequence": "MGSDKIHHHHHHMIENLNGIHETVKYKEYSNVKLFINAEAEDYPIHWHTPMEIIMPLEGGYTVQIGDDLVHLNENDIIFIASGVKHRLIAPDTGKRLILQIEWSAVSKIKELNSILTLIAPAITLTPETSGDIHSNIRKLLLDISNEYQTDSFLSEAVIYSKILEVLVLIGRHHTASSCHFNVGRHKQQEYLERFLSICEYIDTHCTEDITLDEIAKIAGFSKYHFTRLFKQFTNNTFYKYLNQKRIELALTLLADPNISVTETAMQSGFANPSTFIRVFKTEKGCTPTEFRKMFIG", "soluble on expression in E. coli": "not soluble"}, {"sequence": "MGHHHHHHSHMITREEIANVLDQPVYDGDGNKIGDAKHVFFDDMTGRPEWVSVKTGMFGSTESFVPIRDAALVQDHLEVPYGKDQVKGAPSVDVDAGGHLSETEEHRLYDYYGINWDSVLSEAERTDDDRFAAGPGTAGAAGTAGAAGLAGTAGAAGAAGTAGGRTGREDAMRREGMRGDEGAMRREGMRGDEAMTRSEEQMHIGVERHESGRARLRKYVVTEEVQQTVPVTHEEVRVVREPITDANRDEALAGPEISEAEHEVTLHAERPVVETETVPVERVRMTTEELTENETVRGQVRKERIEAETESFTEGETKNARDDKRRGGK", "soluble on expression in E. coli": "soluble"}]}]}
